Measurements published in patent US20180237511A1 (Sanofi, published 2018).
Numbering of substitutions follows the chain as printed. One block for each binder: values may come before it.

Tests used:
[1] = target: T1, human beta-dystroglycan extracellular domain (soluble) (human, UniProt Q14118 654-749); assay: SPR, antibody on Protein G chip, beta-DG in flow, 1:1 model (table title says laminin-2; paragraph 445 says human beta-DG)
T1 construct: extracellular domain; The expression construct of soluble human beta-DG is not described (only the mouse one); also called hBeta-DG; hbeta-DG
T1 sequence (looked up): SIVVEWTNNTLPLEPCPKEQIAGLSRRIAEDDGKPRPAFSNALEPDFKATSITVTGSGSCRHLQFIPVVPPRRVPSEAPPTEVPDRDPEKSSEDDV
Experimental: (§1) Data was evaluated with a 1:1 binding model using the BIAevaluation software.
(§2) SPR was used as described above to analyze the kinetics of triAb binding to laminin-2 (Table N) or beta-DG (Table O).

[2] = target: T1, human beta-dystroglycan extracellular …; assay: sequential SPR (Biacore T100): antibody captured on a Protein G chip, 200 nM human LG4/5 for 60 s, then 200 nM human beta-DG for 60 s
Experimental: For sequential dual binding of antigens to trivalent antibodies, a Series S Sensor Protein G chip (GE Healthcare, 29179315) was used with a T100 Biacore. This chip was used to immobilize trivalent or parental antibody to the surface (60 seconds with 5 ug/mL of antibody). After capture, 200 nM of LG4/5 was flowed over the chip for 60 seconds followed by 200 nM of beta-DG for 60 seconds. Binding to the trivalent antibody was observed by the change of mass detected on the chip in relative units (RU).
Additionally, surface plasmon resonance was performed to show sequential binding of the human laminin-2 and beta-DG antigens (FIG. 1C).

[3] = target: T2, human laminin G-like 4 and 5 domains of laminin-2 (hLG-4/5), soluble (human, UniProt P24043 2729-3122, biotinylated in the ELISA of Example 6); assay: SPR, antibody on Protein G chip, LG4/5 in flow, 1:1 model (table title says beta-DG; paragraph 445 says human laminin-2)
T2 construct: range 2729-3122; also called human LG-4/5; hLG4/LG5; not shown: Avi tag and HPC4 tag left after TEV cleavage of the N-terminal mIgG2a fusion partner
T2 sequence (looked up): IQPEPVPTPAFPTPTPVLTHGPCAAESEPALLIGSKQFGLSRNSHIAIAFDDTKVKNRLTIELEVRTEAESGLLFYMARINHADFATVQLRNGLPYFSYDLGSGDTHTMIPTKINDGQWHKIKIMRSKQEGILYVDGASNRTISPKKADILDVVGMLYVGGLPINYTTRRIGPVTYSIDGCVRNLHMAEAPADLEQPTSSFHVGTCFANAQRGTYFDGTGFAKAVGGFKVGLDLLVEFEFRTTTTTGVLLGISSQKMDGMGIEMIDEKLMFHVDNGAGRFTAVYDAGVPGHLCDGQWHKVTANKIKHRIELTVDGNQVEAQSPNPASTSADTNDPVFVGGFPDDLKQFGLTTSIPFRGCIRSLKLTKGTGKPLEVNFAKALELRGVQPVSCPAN
Experimental: as §1, §2

[4] = target: T3, human laminin G-like 5 domain of laminin-2 (hLG-5) (human, UniProt P24043 2936-3122, soluble biotinylated protein (Avi tag)); assay: SPR (Biacore) kinetics; mAb immobilized, hLG-5 in flow
T3 construct: The construct used for the crystal structure with C21 Fab is not described; the same entry is used; also called human LG-5; human LG5; not shown: N-terminal Avi and HPC4 tags
T3 sequence: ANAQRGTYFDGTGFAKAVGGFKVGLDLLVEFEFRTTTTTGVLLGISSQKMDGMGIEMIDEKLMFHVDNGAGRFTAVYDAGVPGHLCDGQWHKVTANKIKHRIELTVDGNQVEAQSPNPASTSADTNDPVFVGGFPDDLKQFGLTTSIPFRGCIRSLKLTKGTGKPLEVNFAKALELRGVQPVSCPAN

B1: triAb 3423 (bispecific antibody)
light 1: EIVLTQSPDFLSVTPKEKVTLSCRASQSISNYLHWYQQKSDQSPKLLIKYASQSISGIPSRFSGSGSGTDFTLSINSVEAEDAATYFCQQSKSWPRTFGGGTKLEIKDKTHTEIVLTQSPDFLSVTPKEKVTLTCRASQSISNNLHWYQQKSDQSPKLLIKYASQSISGIPSRFSGSGSGTDFTLTINSVEAEDAATYFCQQSKSWPRTFGGGTKLEIKDKTHTRTVAAPSVFIFPPSDEQLKSGTASVVCLLNNFYPREAKVQWKVDNALQSGNSQESVTEQDSKDSTYSLSSTLTLSKADYEKHKVYACEVTHQGLSSPVTKSFNRGEC
heavy 1: EVQLVESGGGLVKPGGSLRLSCAASGFTFSSYTMSWVRQAPGKGLEWVASISSSGSNTYYPDSVKGRFTISRDNAKNNLYLQMNSLRAEDTALYYCARFDYGSSLDSWGQGTLLTVSSDKTHTEVQLVESGGGLVKPGGSLRLSCAASGFTFSSYTMSWVRQAPGKGLEWVASISSSGSNTYYPDSVKGRFTISRDNAKNNLYLQMNSLRAEDTALYYCARFDYGSSLDSWGQGTLLTVSSDKTHTASTKGPSVFPLAPSSKSTSGGTAALGCLVKDYFPEPVTVSWNSGALTSGVHTFPAVLQSSGLYSLSSVVTVPSSSLGTQTYICNVNHKPSNTKVDKKVEPKSCDKTHTCPPCPAPELLGGPSVFLFPPKPKDTLYITREPEVTCVVVDVSHEDPEVKFNWYVDGVEVHNAKTKPREEQYNNASRVVSVLTVLHQDWLNGKEYKCKVSNKALPAPIEKTISKAKGQPREPQVYTLPPCRDELTKNQVSLWCLVKGFYPSDIAVEWESNGQPENNYKTTPPVLDSDGSFFLYSKLTVDKSRWQQGNVFSCSVMHEALHNHYTQKSLSLSPG
heavy 2: QVQLVQSGAEVVKPGSSVKVSCEASGFTFTDSVITWVRQRPGQGLEWIGEIYPGSGNFYYNEKFQGRVTITADKSTSTAYMELSSLRSEDTAVYFCAMRRSSWGQGTLVTVSSASTKGPSVFPLAPSSKSTSGGTAALGCLVKDYFPEPVTVSWNSGALTSGVHTFPAVLQSSGLYSLSSVVTVPSSSLGTQTYICNVNHKPSNTKVDKKVEPKSCDKTHTCPPCPAPELLGGPSVFLFPPKPKDTLYITREPEVTCVVVDVSHEDPEVKFNWYVDGVEVHNAKTKPREEQYNNASRVVSVLTVLHQDWLNGKEYKCKVSNKALPAPIEKTISKAKGQPREPQVCTLPPSRDELTKNQVSLSCAVKGFYPSDIAVEWESNGQPENNYKTTPPVLDSDGSFFLVSKLTVDKSRWQQGNVFSCSVMHEALHNRFTQKSLSLSPG
light 2: DVVMTQTPLSLSVTPGQPASISCKSSQTIVHSNSKTYLEWYLQKPGQSPQLLIYKVSSRFSGVPDRFSGSGSGTDFTLKISRVEAEDVGVYYCFQGSHVPLTFGQGTKLEIKRTVAAPSVFIFPPSDEQLKSGTASVVCLLNNFYPREAKVQWKVDNALQSGNSQESVTEQDSKDSTYSLSSTLTLSKADYEKHKVYACEVTHQGLSSPVTKSFNRGEC
notes: Trivalent: CODV arm VH1/VL1 C3_Hu10, VH2/VL2 C21_Hu11
Kd [1]: 1.6 nM | koff [1]: 0.00433 s⁻¹ | kon [1]: 2.7e+06 M⁻¹ s⁻¹

B2: triAb 3429 (bispecific antibody)
light 1: B1 light 1 with K16G, S22T, I58V, S74T, N76S, A83F, S142G
heavy 1: B1 heavy 1 with K136Q, S173T, S179D, A198S, N201T, N207S, L236T
heavy 2: B1 heavy 2
light 2: B1 light 2
notes: Trivalent: CODV arm VH1/VL1 C3_Hu11, VH2/VL2 C21_Hu21
Kd [1]: 1.9 nM | koff [1]: 0.00404 s⁻¹ | kon [1]: 2.13e+06 M⁻¹ s⁻¹

B3: triAb 3437 (bispecific antibody)
light 1: B1 light 1 with S22T, S30G, Y32N, S74T, T134S, N144Y, T186S
heavy 1: B1 heavy 1
heavy 2: B1 heavy 2
light 2: B1 light 2
notes: Trivalent: CODV arm VH1/VL1 C21_Hu11, VH2/VL2 C3_Hu11
Kd [1]: 1.87 nM | koff [1]: 0.0045 s⁻¹ | kon [1]: 2.41e+06 M⁻¹ s⁻¹

B5: humanized anti-laminin-2 antibody C3_Hu10 (antibody, V domains shown)
VH: EVQLVESGGGLVKPGGSLRLSCAASGFTFSSYTMSWVRQAPGKGLEWVASISSSGSNTYYPDSVKGRFTISRDNAKNNLYLQMNSLRAEDTALYYCARFDYGSSLDSWGQGTLLTVSS
VL: EIVLTQSPDFLSVTPKEKVTLTCRASQSISNNLHWYQQKSDQSPKLLIKYASQSISGIPSRFSGSGSGTDFTLTINSVEAEDAATYFCQQSKSWPRTFGGGTKLEIK
notes: Called monovalent anti-LG4/5 antibody
binding result [2]: no binding (tested: 200 nM)

B9: humanized anti-beta-DG antibody AS30SS_Hu6 (antibody, V domains shown)
VH: QVQLVQSGAEVVKPGSSVKVSCEASGFTFTDSVITWVRQRPGQGLEWIGEIYPGSGNFYYNEKFQGRVTITADKSTSTAYMELSSLRSEDTAVYFCAMRRSSWGQGTLVTVSS
VL: DVVMTQTPLSLSVTPGQPASISCKSSQTIVHSNSKTYLEWYLQKPGQSPQLLIYKVSSRFSGVPDRFSGSGSGTDFTLKISRVEAEDVGVYYCFQGSHVPLTFGQGTKLEIK
notes: also called AS30_Hu6; AS30 Hu6
Kd [1]: 0.796 nM | koff [1]: 0.00202 s⁻¹ | kon [1]: 2.54e+06 M⁻¹ s⁻¹

B10: anti-laminin-2 (anti-LG-5) monoclonal antibody clone AN01 (antibody, V domains shown)
VH: EVQLQQSGPELVKPGASVKMSCKASGYTFTSYNIHWVKQKPGQGLEWIGYINPYNDGTKYSEKFKGKATLTSDRSSSTAYMEVSSLTSEDSAVYYCAIYGNSYWGQGSTLTVSS
VL: DIVMTQAAPSIPVTPGESVSISCRSSKSLLHSNGNTYLYWFLQRPGQSPQRLIYYMSNLDSGVPDRFSGRGSGTDFTLRISRVEAEDVGVYYCMQGLEYPYTFGGGTKLEIK
notes: tested as immobilized mAb
Kd [4]: 9.24 nM | koff [4]: 0.000915 s⁻¹ | kon [4]: 99000 M⁻¹ s⁻¹

More lines, now with the values ahead:

Kd [1]: 1.3 nM | koff [1]: 0.004 s⁻¹ | kon [1]: 3.07e+06 M⁻¹ s⁻¹
B4: triAb 3439 (bispecific antibody)
light 1: B1 light 1 with S22T, Y32N, S74T, K128G, N144Y, I170V, N188S, A195F
heavy 1: B1 heavy 1 with K13Q, S50T, S56D, A75S, N78T, N84S, L113T
heavy 2: B1 heavy 2
light 2: B1 light 2
notes: Trivalent: CODV arm VH1/VL1 C21_Hu21, VH2/VL2 C3_Hu10

Kd [3]: 8.99 nM | koff [3]: 0.00144 s⁻¹ | kon [3]: 160000 M⁻¹ s⁻¹ | binding result [2]: no binding (tested: 200 nM)
B6: humanized anti-laminin-2 antibody C21_Hu21 (antibody, V domains shown)
VH: B5 VH with K13Q, S50T, S56D, A75S, N78T, N84S, L113T
VL: B5 VL with K16G, N32Y, I58V, N76S, A83F
notes: as for B5

Kd [3]: 9.83 nM | koff [3]: 0.00117 s⁻¹ | kon [3]: 119000 M⁻¹ s⁻¹ | binding result [2]: no binding (tested: 200 nM)
B7: humanized anti-laminin-2 antibody C3_Hu11 (antibody, V domains shown)
VH: B5 VH
VL: B5 VL with S30G
notes: as for B5

binding result [2]: no binding (tested: 200 nM)
B8: humanized anti-laminin-2 antibody C21_Hu11 (antibody, V domains shown)
VH: B5 VH
VL: B5 VL with T22S, N32Y, T74S
notes: as for B5
